Test: protease stability score; higher = more stable; yeast display proteolysis, trypsin and chymotrypsin;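 note: relative to predicted unfolded state with 0 unfolded-like and 1 meaning tenfold more protease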

Row | Sequence | protease stability score
1 | DEDERVMRTLLELLLRSHNTGDEDSYKQLLDPDTRVHVDGVDFHGMEFARTLARHWRVKHVELKDVRSQGNKIEADIHTVGVINGQELRTETHIITEKVNGRWVLHSISIR | 1.46
2 | DEDESLAKWAVEVLFEDLRTGDEDHLRRLMDPDTRFIIGDKIFHGREKAEEWLRLNRKRVDHLESFHIHHITVDENHLRVHGRVVGTFDGVEDKYETHIFARKVNGRWHHRQLKIK | 1.49
3 | DEDETFMREFLKELIHSLHTGDEETLLRLADPHTRVVINGRTLIGWETFDKLLKEARVHHHEIKRVRFFDGQVETDTRTDGRIDGVRVEIETTLIVKKVNGRWYMRSVIIT | 0.686
4 | DEDEYMAKEMSELLIHLLLTGDEEHFRKFADPNVRLIIGEFESHGREEALRLLRILHRDYGIKHIHFRLRHIHQIGDKVNIHSQVELRQGDKHNSHEMTVIIWKVNGRWVIHSIDIV | 2.38
5 | DEDFDIVKHIFDVYIDAILTGDFRTLERNIDPDAKLHFNGREYHGWEIVVKFMLEIRVHDVQYKTMHIYDGRVELHGRNDGVIDGQKTETDTKIIMVKIDGRWHVRHIRVG | 1.33
6 | DEDFEHARRVLELFIESVETGDENSYRRLADPNTRYHAENHEHHGREYYIRLLEELRMSVHDLKIESWRLVDGQLRLNTRTDLHVNVNGQRIRLDTETHIVLNKINGRWYIHIIYIG | 1.27
7 | DEDFELAERFLEKWINVSRTGDEKKAHELVDPNVLINIGDKQIHGRERVVEWVSHIRIHHLEIHHFDVQGDKLIIDGRMDGTVNGRRVDHHIRIIISKVNGRWQTKTIDHE | 0.665
8 | DEDFENASRTLKKFYEDEATGDEDALSELVDPNTRLDINGQQVHGWENFRKWIHHLGIKHVILHIRRYDSQGDKLHLETEEVHDFNGVEERRDTRLLLLKVDGKWIFKEIEVK | 1.41
9 | DEDFEYALRVAKLFWEAVFTGDEKTLEHLLDPNVRIDINGRHIHGREELIKLFHEIRIHMHEIRIDDIRVQGNYLLVHGHVILEVNINGRTTRIETEVRIEISKVNGRWIIRQSEHT | 2.08
10 | DEDFRDAKHMWELYLELIHTGDEERLRKLMDPNVRVEVGDKELHGRHHYIKWVREMRMRIEDVRIRTVRNINGVVHIHGELRGEYVYGDKRVHFETEVELVLLKVNGRWKIHEEHIH | 1.75
11 | DEDHDIIREALERWRHYVHTGDWRSLLKMMDPHVRNDVDGVDIIGREEASRYYREVFERLGVDHIDIHLRDMQIQGDKVTVHSELELNYNGRRFMHDIEIISVKVDGRWSIRSVFSK | 1.41
12 | DEDHDLQEEILKRFEHLFRTGDWKELHHLLDPHARTRWDGRTRHGRDQVLDVMREMGADHLTIHHYNIQGEKIRIDFDLEIGDKRHKLDIHVSKINGKWIVKHIEIDTR | 1.03
13 | DEDHDVYHRLVKITLSLLATGDESWMKKLFDPHVRVNINGVDVHGREWLLKLFRLLLERLGVDHMTAHVHDFRQYDGRVHADTTEVYDVDGREIRFKTEVIIDKFNGRWFVTFVIII | 1.78
14 | DEDHEAMKHFQHLLERTHRTGDEERLLRLLDPNVRIIINGQHFHGREWWARHINHMRFHEYEFRVHHINVYGDKIEIDGTLRRRGEFDGREHEVNIRVHLTIEKFDGRWYMHILEFR | 0.795
15 | DEDHEAVERLLEHLQTAFLTGDWRREDELVDPNARVHFNGQERHGRHVLRYVNEFLEDRFKNLQIRHSTVHDSHVQGDKIILFTSYELRVDGREFSLKTKIIFHKVDGRWLVTHLYIE | 0.823
16 | DEDHEDMRKILELLRTAYETGDERVHEHLLDPNTRLHIGEFNNVGWHNVLEFFEQHQKELGVKHIELRLEDFDKQGDFLIIHGRLIVNVNGKRINVHLEVHMHKVNGRWYDRERRVL | 0.928
17 | DEDHEDSKHALEYMLDSVRTGDEHRMKRLVDPNMKVHWDGVDVVGRELAAKFLSQLRVHSVHLKDHKVFDGQLDLHVHIRQEWDGRHRETRTTFFILKINGRWLVTEVRVD | 0.249
18 | DEDHEEFHRLVHEIFEYWRTGDEESLSELADPHVRYLYGDKIWIGREDMMTFLREIRIDRVHIEDMRVHKIGNKAEIRSDTRMDLHFNGKRLETKTEVKIVLHKVNGRWVIKSIEYRIE | 2.13

Row | Sequence | protease stability score
19 | DEDHEELHHWSRLTLESIKTGNEDELHKFADPNVRFKVNGKDIHGMESFVRFMLEFIDRYPNLVLEEKHFHVVNGRMIQIIRVRVGDKTSEIFLIAHKVDGRWHLEHMEIR | 1.08
20 | DEDHEEVEKYLKLFMKISETGNEEDIKKMADPDTRVDIGDKRHHGMEEFLHFWSHWRIHSIDIKDIEVQGEKVIITGETDVTIDGRKLRMKIIIVALKVNGKWIHKSVKFE | 1.37
21 | DEDHEHLERHTRLFLERWRTGDEETLLKLFDPHARSEYGDKHHVGREEVTKLMVIILEKVKGLTIRRLRIKHIEYVDGRAHMDMEVTSEIDGQEVIESVHILMTKVDGRWRIQRVILV | 0.927
22 | DEDHEHLKRMADRSWKIFLTGDEDTFVHLADPNVKQHINIDGRNHQNHGREVILRWQEEFQNYFKNMKIELHDMKFYDGRVHIDATLHWNGVERKIHLIFVIVDGRIKEERFHVR | 0.707
23 | DEDHEIAKKASDIWWHILRTGDEDQLHKMMDPHVRTTVGDKEHHGREAVEHLTHFYKNMQIHVTHERFHVQGDKVHVEREGHLRIGDKRVEVRVRIEIHKVDGKWIIHTIEMELR | 0.425
24 | DEDHEIATKVLELWERLINTGDEEQMSRLADPNTKITIGEKDIVGREDIIKDMRHIRWKVKDFKIHDSSVIDGRIHLDGEMHVIFDVNGRRHERTIRMEIIVEKIDGRWVFKSIHIE | 1.3
25 | DEDHEILHRLWELLIKLLKTGDEEIMKRLADPDTKVEAEGRKLIGRDEFVKWMREFSKRFDHVEIRFKRMHIINGRVYMNGHIVEQQGEYQYRQDTIIVSEKVDGRWLITHIHIE | 1.44
26 | DEDHEISKRALEQWIHDLHTGDEDTLRKFADPNARMEVDGVEHHGMELAMRILLRIDVTEIRIKDMRIVDGRVEIDGEVRDKVNGKTRESRVHLYVLKVDGRWVMESITIQ | 0.476
27 | DEDHELAEDAIRWMSKIMLTGNEEHLHEMFDPDARIRFEGRSSHGWEEMIHFIRHIRIYIKESRIRDVRIQGDKIDVIGEVKIVIRIGDKIHEDTRDVYILVVKVDGRWTVRSFELV | 0.712
28 | DEDHELMRWMLELLIDHTLTGDEERIHELADPNVKIDVNGVELHGRHLWIKYLSELRIHKVEIRQTRLIDGVMHIDTSLDISYDGVRRETQHHLVILKINGKWMIHNVSYK | 1.15
29 | DEDHELSKLAQEWFYKTMVTGDEETAERLADPNMRIDINGKSLHGRKWQRHIIRDLGVDHVEFHDVRTINGQLHISTTINVDGRNQHTHIIVLKIDGRWSLRSSEFK | 0.614
30 | DEDHELSREFLEELLKSWITGDEDVMREFADPNVRQHVDGKDLHGMEEWTRFVYHMRFHDVRIEHHRLFDGQVEIKFREDVTYNGRRVHIESRVRIVKVNGVWRLKELYVH | 0.858
31 | DEDHELVEKFLRQMIFAQITGDWRFMMHLADPHVRYEVGDKHYHGREDMERVFREWRVNSIRIEHIRIIGDKAETHQDEDGHIDGRRIELHVRLILLKVDGRWIVHNSHII | 1.37
32 | DEDHELVHRAIRDLFRALDTGDEDALEEMMDPHTRLHVGDKIYHGRDNVLRFWRRLGVDHVKVHLHDVRIQGEKIDQNTELRIQIGDKRITTETRIIMFKFDGRWRRESVHIE | 1.01
33 | DEDHEQAKRVFDELVDNTRTGDFDNLRKLMDPHARLVINGRNFIGREEVIRVMHEIRIETHRIRSIRIINGQARIDVESEVDINGRTEETRVEIIVFKVDGRWYLHTLRIV | 1.99
34 | DEDHEQSHEMLELFVHSWKTGDWEILIKLLDPHARSIVNGREVHGREEISRYFKEELKKIPNMRIEVKIRSVEIQGDKVDNDVEIIIKYGDKLIRRKVHLLDLKVDGRWFLTDVTIE | 1.96
35 | DEDHERSEIASKITYKIIETGNEDLFSHFADPNTRLHVNGVDSVGMEDVIKVHRKLWKDLGVDHFILHDQKVDVVDGVAEVRLDTRLRFNGREFETEVRFLVLKFNGRWWIRMIEFRVI | 0.968
36 | DEDHERTKLFSKLFLKWTHTGDWEKILENADPNVRMHIGDKNFHGMHEVWRFLHEHLEKLGADVHSLTDLKIEAYNGVVVVHVEGTENINGRDITSRLHLIVIKVDGRWIIREIRVTIS | 1.29

— the NTF2 design screens of Basanta et al. (2020)
